Measurements: patent US20240209086A1 (PETMEDIX, published 2024)

Tests used:
[1] = biological target: canine CD3 on canine T cells (canine PBMC) (canine, UniProt P27597 22-202); experiment: cell-based or functional assay
[2] = biological target: T1, canine CD3εδ-Fc (heterodimer of canine CD3ε-hIgG4PE-knob and canine CD3δ-hIgG4PE-hole) (canine); experiment: SPR (Biacore 8K), CD3εδ-Fc amine-coupled to CM5 chip, multi-cycle kinetics, antibody 600-7.4 nM
T1 construct: also called CD3εδ-Fc fusion protein; copies: 1 + 1
Experimental: Binding affinity of shortlisted candidates, described in Example 3, were assessed using Biacore 8K (Cytiva). Briefly, a CM5 Sensor Chip (Cytiva) was docked onto a Biacore 8K, equilibrated for 30′ at RT and then Running Buffer (10 mM HEPES pH6 150 mM NaCl 3 mM EDTA and 0.005% Tween20) was applied to the SPR chip surface. Canine CD3εδ-Fc was diluted into 10 mM acetate buffer pH4.5 and immobilised using standard amine coupling reaction. Antibodies dilutions were prepared by diluting the shortlisted candidates from 600 nM to 7.4 nM (5 concentrations with 1:3 dilutions) in running buffer and kinetics was assessed using multi-cycle kinetics method (120 sec association-300 sec dissociation). Kinetics and/or Affinity quantification was performed using Biacore Insight following standard analyses methods.

T1 sequence (chain, as listed by the source mutant limits assumed): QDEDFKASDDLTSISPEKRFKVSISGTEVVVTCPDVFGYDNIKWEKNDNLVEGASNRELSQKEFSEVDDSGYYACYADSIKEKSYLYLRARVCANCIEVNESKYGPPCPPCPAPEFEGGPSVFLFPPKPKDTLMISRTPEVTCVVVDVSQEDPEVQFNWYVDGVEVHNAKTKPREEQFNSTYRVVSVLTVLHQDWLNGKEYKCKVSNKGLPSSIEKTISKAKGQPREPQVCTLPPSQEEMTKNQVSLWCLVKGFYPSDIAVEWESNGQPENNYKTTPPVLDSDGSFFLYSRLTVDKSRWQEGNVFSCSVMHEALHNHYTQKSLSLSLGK
canine CD3 on canine T cells (canine PBMC), sequence (P27597 22-202 limits assumed, chain 1 of 3): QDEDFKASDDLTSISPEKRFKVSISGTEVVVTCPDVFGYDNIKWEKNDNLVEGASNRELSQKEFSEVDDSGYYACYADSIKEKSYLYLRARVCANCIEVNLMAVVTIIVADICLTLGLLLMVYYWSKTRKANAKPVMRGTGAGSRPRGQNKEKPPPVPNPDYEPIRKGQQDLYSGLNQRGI
canine CD3 on canine T cells (canine PBMC), sequence (chain, as listed by the source limits assumed, chain 2 of 3): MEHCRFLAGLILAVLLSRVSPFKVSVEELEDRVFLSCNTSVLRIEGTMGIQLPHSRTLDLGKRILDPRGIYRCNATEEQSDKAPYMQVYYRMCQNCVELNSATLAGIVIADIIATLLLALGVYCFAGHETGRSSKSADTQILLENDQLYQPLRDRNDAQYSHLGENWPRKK
canine CD3 on canine T cells (canine PBMC), sequence (chain, as listed by the source limits assumed, chain 3 of 3): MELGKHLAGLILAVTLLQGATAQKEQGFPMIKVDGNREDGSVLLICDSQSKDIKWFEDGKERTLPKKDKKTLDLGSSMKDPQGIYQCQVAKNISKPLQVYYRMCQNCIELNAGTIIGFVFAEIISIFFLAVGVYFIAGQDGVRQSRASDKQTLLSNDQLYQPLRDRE

Binder	EC50 (M) of killing potency, bispecific killing of hCD20+GFP MDCK II cells by canine PBMC [1] [M]	Kd [2] [nM]
PMX172 in bispecific format (canine CD3 arm PMX172 x Rituximab arm, human IgG4PE knob-in-hole) (bispecific antibody) heavy 1: EVQLVESGGDLVKPGGSLRLSCVASGFTFSSYHMSWVRQAPGKGLQWVAYSNSGGSRTSYADAVKGRFTISRDNAKNTLYLQMNSLRAEDTAVYYCASEGGGGRYGYKDYGMDYWGHGTSLFVSSASTKGPSVFPLAPCSRSTSESTAALGCLVKDYFPEPVTVSWNSGALTSGVHTFPAVLQSSGLYSLSSVVTVPSSSLGTKTYTCNVDHKPSNTKVDKRVESKYGPPCPPCPAPEFEGGPSVFLFPPKPKDTLMISRTPEVTCVVVDVSQEDPEVQFNWYVDGVEVHNAKTKPREEQFNSTYRVVSVLTVLHQDWLNGKEYKCKVSNKGLPSSIEKTISKAKGQPREPQVYTLPPSQCEMTKNQVSLSCAVKGFYPSDIAVEWESNGQPENNYKTTPPVLDSDGSFFLVSRLTVDKSRWQEGNVFSCSVMHEALHNRFTQKSLSLSLGK light 1: SYVLTQLPSKNVTLKQPAHITCGGDNIGSKSVHWYQQKLGQAPVLIIYYDSSRPTGIPERFSGANSGNTATLTISGALAEDEADYYCQVWDSSAKAWVFGEGTQLTVLRTVAAPSVFIFPPSDEQLKSGTASVVCLLNNFYPREAKVQWKVDNALQSGNSQESVTEQDSKDSTYSLSSTLTLSKADYEKHKVYACEVTHQGLSSPVTKSFNRGEC heavy 2: not shown light 2: QIVLSQSPAILSASPGEKVTMTCRASSSVSYIHWFQQKPGSSPKPWIYATSNLASGVPVRFSGSGSGTSYSLTISRVEAEDAATYYCQQWTSNPPTFGGGTKLEIKRTVAAPSVFIFPPSDEQLKSGTASVVCLLNNFYPREAKVQWKVDNALQSGNSQESVTEQDSKDSTYSLSSTLTLSKADYEKHKVYACEVTHQGLSSPVTKSFNRGEC	4.66e-09	447
PMX169 in bispecific format (canine CD3 arm PMX169 x Rituximab arm, human IgG4PE knob-in-hole) (bispecific antibody) heavy 1: EVQVVESGGDLVKPGGSLRLSCVTSGFAFNNYHMSWVRQAPGKGLQWVAYINSGGSRISYADAVKGRFTISRDNAKNTLYLQMNSLRAEDTAVYYCASEGGGEIYGFKDYGMDYWGHGTSLFVSSASTKGPSVFPLAPCSRSTSESTAALGCLVKDYFPEPVTVSWNSGALTSGVHTFPAVLQSSGLYSLSSVVTVPSSSLGTKTYTCNVDHKPSNTKVDKRVESKYGPPCPPCPAPEFEGGPSVFLFPPKPKDTLMISRTPEVTCVVVDVSQEDPEVQFNWYVDGVEVHNAKTKPREEQFNSTYRVVSVLTVLHQDWLNGKEYKCKVSNKGLPSSIEKTISKAKGQPREPQVYTLPPSQCEMTKNQVSLSCAVKGFYPSDIAVEWESNGQPENNYKTTPPVLDSDGSFFLVSRLTVDKSRWQEGNVFSCSVMHEALHNRFTQKSLSLSLGK light 1: SYVLTQLPSKNVTLKQPAHITCGGDNIGSKSVHWYQQKLGQAPVLIIYYDSSRPTGIPERFSGANSGNTATLTISGALAEDEADYYCQVWDSSAKAWVFGEGTQLTVLRTVAAPSVFIFPPSDEQLKSGTASVVCLLNNFYPREAKVQWKVDNALQSGNSQESVTEQDSKDSTYSLSSTLTLSKADYEKHKVYACEVTHQGLSSPVTKSFNRGEC heavy 2: not shown light 2: QIVLSQSPAILSASPGEKVTMTCRASSSVSYIHWFQQKPGSSPKPWIYATSNLASGVPVRFSGSGSGTSYSLTISRVEAEDAATYYCQQWTSNPPTFGGGTKLEIKRTVAAPSVFIFPPSDEQLKSGTASVVCLLNNFYPREAKVQWKVDNALQSGNSQESVTEQDSKDSTYSLSSTLTLSKADYEKHKVYACEVTHQGLSSPVTKSFNRGEC	1.4e-08	854
PMX170 in bispecific format (canine CD3 arm PMX170 x Rituximab arm, human IgG4PE knob-in-hole) (bispecific antibody) heavy 1: EVQLVESGGDLVKPGGSLRLSCVASGFTFSSYHMSWVRQAPGKGLQWVAYSNSGGSRTSYADAVKGRFTISRDNAKNTLYLQMSSLRAEDTAVYYCASEGGGGRYGFKDYGMDYWGHGTSLFVSSASTKGPSVFPLAPCSRSTSESTAALGCLVKDYFPEPVTVSWNSGALTSGVHTFPAVLQSSGLYSLSSVVTVPSSSLGTKTYTCNVDHKPSNTKVDKRVESKYGPPCPPCPAPEFEGGPSVFLFPPKPKDTLMISRTPEVTCVVVDVSQEDPEVQFNWYVDGVEVHNAKTKPREEQFNSTYRVVSVLTVLHQDWLNGKEYKCKVSNKGLPSSIEKTISKAKGQPREPQVYTLPPSQCEMTKNQVSLSCAVKGFYPSDIAVEWESNGQPENNYKTTPPVLDSDGSFFLVSRLTVDKSRWQEGNVFSCSVMHEALHNRFTQKSLSLSLGK light 1: SYVLTQLPSKNVTLKQPAHITCGGDNIGSKSVHWYQQKLGQAPVLIIYYDSSRPTGIPERFSGANSGNTATLTISGALAEDEADYYCQVWDSSAKAWVFGEGTQLTVLRTVAAPSVFIFPPSDEQLKSGTASVVCLLNNFYPREAKVQWKVDNALQSGNSQESVTEQDSKDSTYSLSSTLTLSKADYEKHKVYACEVTHQGLSSPVTKSFNRGEC heavy 2: not shown light 2: QIVLSQSPAILSASPGEKVTMTCRASSSVSYIHWFQQKPGSSPKPWIYATSNLASGVPVRFSGSGSGTSYSLTISRVEAEDAATYYCQQWTSNPPTFGGGTKLEIKRTVAAPSVFIFPPSDEQLKSGTASVVCLLNNFYPREAKVQWKVDNALQSGNSQESVTEQDSKDSTYSLSSTLTLSKADYEKHKVYACEVTHQGLSSPVTKSFNRGEC	3.32e-09	304
PMX171 in bispecific format (canine CD3 arm PMX171 x Rituximab arm, human IgG4PE knob-in-hole) (bispecific antibody) heavy 1: EVQLVESGGDLVKPGGSLRLSCEASGFTFSSYHMSWVRQAPGKGLQWVAYINNGGSGTSYADAVKGRFTISRDNAKNTLYLQMNSLRAEDTAVYFCASEGGGKRYGYKDYGMDYWGHGTSLFVSSASTKGPSVFPLAPCSRSTSESTAALGCLVKDYFPEPVTVSWNSGALTSGVHTFPAVLQSSGLYSLSSVVTVPSSSLGTKTYTCNVDHKPSNTKVDKRVESKYGPPCPPCPAPEFEGGPSVFLFPPKPKDTLMISRTPEVTCVVVDVSQEDPEVQFNWYVDGVEVHNAKTKPREEQFNSTYRVVSVLTVLHQDWLNGKEYKCKVSNKGLPSSIEKTISKAKGQPREPQVYTLPPSQCEMTKNQVSLSCAVKGFYPSDIAVEWESNGQPENNYKTTPPVLDSDGSFFLVSRLTVDKSRWQEGNVFSCSVMHEALHNRFTQKSLSLSLGK light 1: SYVLTQLPSKNVTLKQPAHITCGGDNIGSKSVHWYQQKLGQAPVLIIYYDSSRPTGIPERFSGANSGNTATLTISGALAEDEADYYCQVWDSSAKAWVFGEGTQLTVLRTVAAPSVFIFPPSDEQLKSGTASVVCLLNNFYPREAKVQWKVDNALQSGNSQESVTEQDSKDSTYSLSSTLTLSKADYEKHKVYACEVTHQGLSSPVTKSFNRGEC heavy 2: not shown light 2: QIVLSQSPAILSASPGEKVTMTCRASSSVSYIHWFQQKPGSSPKPWIYATSNLASGVPVRFSGSGSGTSYSLTISRVEAEDAATYYCQQWTSNPPTFGGGTKLEIKRTVAAPSVFIFPPSDEQLKSGTASVVCLLNNFYPREAKVQWKVDNALQSGNSQESVTEQDSKDSTYSLSSTLTLSKADYEKHKVYACEVTHQGLSSPVTKSFNRGEC	8.52e-09	517
PMX186 in bispecific format (canine CD3 arm PMX186 x Rituximab arm, human IgG4PE knob-in-hole) (bispecific antibody) heavy 1: EVKLVESGGDLVKPGGSLRLSCVASGVTFSRYYMSWVRQAPGKGLQWVAYINSGGSTTSYADAVKGRFTISRDNAKNTLYLQMNSLRAEDTAVYYCASEGVGEIYGYKDFGMDYWGHGTSLFVSSASTKGPSVFPLAPCSRSTSESTAALGCLVKDYFPEPVTVSWNSGALTSGVHTFPAVLQSSGLYSLSSVVTVPSSSLGTKTYTCNVDHKPSNTKVDKRVESKYGPPCPPCPAPEFEGGPSVFLFPPKPKDTLMISRTPEVTCVVVDVSQEDPEVQFNWYVDGVEVHNAKTKPREEQFNSTYRVVSVLTVLHQDWLNGKEYKCKVSNKGLPSSIEKTISKAKGQPREPQVYTLPPSQCEMTKNQVSLSCAVKGFYPSDIAVEWESNGQPENNYKTTPPVLDSDGSFFLVSRLTVDKSRWQEGNVFSCSVMHEALHNRFTQKSLSLSLGK light 1: SYVLTQLPSKNVTLKQPAHITCGGDNIGSKSVHWYQQKLGQAPVLIIYYDSRRPTGIPERFSGANSGNTATLTISGALAEDEADYYCQVWDSSAKAWVFGEGTQLTVLRTVAAPSVFIFPPSDEQLKSGTASVVCLLNNFYPREAKVQWKVDNALQSGNSQESVTEQDSKDSTYSLSSTLTLSKADYEKHKVYACEVTHQGLSSPVTKSFNRGEC heavy 2: not shown light 2: QIVLSQSPAILSASPGEKVTMTCRASSSVSYIHWFQQKPGSSPKPWIYATSNLASGVPVRFSGSGSGTSYSLTISRVEAEDAATYYCQQWTSNPPTFGGGTKLEIKRTVAAPSVFIFPPSDEQLKSGTASVVCLLNNFYPREAKVQWKVDNALQSGNSQESVTEQDSKDSTYSLSSTLTLSKADYEKHKVYACEVTHQGLSSPVTKSFNRGEC	1.29e-08	513
PMX190 in bispecific format (canine CD3 arm PMX190 x Rituximab arm, human IgG4PE knob-in-hole) (bispecific antibody) heavy 1: EVQLVESGGDLVKPGGSLRLSCVASGFTFSSYQMSWVRQAPGKGLQWVAYISSGGGRTTYADAVRGRLTISRDNAKNTLYLQMNSLRAEDAAVYYCAREGGGEIYGYKDYGMDYWGHGTSLFVSSASTKGPSVFPLAPCSRSTSESTAALGCLVKDYFPEPVTVSWNSGALTSGVHTFPAVLQSSGLYSLSSVVTVPSSSLGTKTYTCNVDHKPSNTKVDKRVESKYGPPCPPCPAPEFEGGPSVFLFPPKPKDTLMISRTPEVTCVVVDVSQEDPEVQFNWYVDGVEVHNAKTKPREEQFNSTYRVVSVLTVLHQDWLNGKEYKCKVSNKGLPSSIEKTISKAKGQPREPQVYTLPPSQCEMTKNQVSLSCAVKGFYPSDIAVEWESNGQPENNYKTTPPVLDSDGSFFLVSRLTVDKSRWQEGNVFSCSVMHEALHNRFTQKSLSLSLGK light 1: SYVLTQLPSKNVTLKQPAHITCGGDNIGSKSVHWYQQKLGQAPVLIIYYDSSRPTGIPERFSGANSGNTATLTISGALAEDEADYYCQVWDSSAKAWVFGEGTQLTVLRTVAAPSVFIFPPSDEQLKSGTASVVCLLNNFYPREAKVQWKVDNALQSGNSQESVTEQDSKDSTYSLSSTLTLSKADYEKHKVYACEVTHQGLSSPVTKSFNRGEC heavy 2: not shown light 2: QIVLSQSPAILSASPGEKVTMTCRASSSVSYIHWFQQKPGSSPKPWIYATSNLASGVPVRFSGSGSGTSYSLTISRVEAEDAATYYCQQWTSNPPTFGGGTKLEIKRTVAAPSVFIFPPSDEQLKSGTASVVCLLNNFYPREAKVQWKVDNALQSGNSQESVTEQDSKDSTYSLSSTLTLSKADYEKHKVYACEVTHQGLSSPVTKSFNRGEC	1e-08	999
